From patent US11786578B2, “Modified relaxin polypeptides and their uses” (AMBRX, INC., priority 2010, dated 2023)
Read-outs that look alike come from different tables or passages of the source. Non-standard residues stand in square brackets, D forms with d. No end group written: not given here. Phe(4-Ac) = CC(=O)c1ccc(C[C@H](N)C(=O)O)cc1

Columns and labels:
[1] = PK of 20 kDa PEGylated relaxin polypeptides after a single subcutaneous injection in SD rats (Example 40); format: in vivo, Sprague-Dawley (SD) rats; conditions: for AUCinf / CL (mL/hr) / Cmax / MRT / Tmax / Vz / Terminal HL / Mean serum Conc.: 0.5 mg/kg SC; for AUCinf / CL (mL/hr) / Cmax / MRT / Tmax / Vz / Terminal HL: SD rats; for Terminal HL: non-compartmental; for Mean serum Conc.: male SD rats; for In vivo PK Term HL: 20K PEG
Excerpt: This example evaluates the pharmacokinetic properties of 20 kDa PEGylated relaxin polypeptides following a single subcutaneous injection in SD rats.
1st order elimination model and Gauss-Newton (Levenberg-Hartley) model fit equation. […] FIG. 8A-8/compares group mean serum concentration versus time for all PEG-Relaxin compounds dosed. All dose groups had measurable serum PEG-Relaxin levels.

human RXFP4 [2] = target: T1, human RXFP4 (Homo sapiens, UniProt Q8TDU9); conditions: literature value; read-out: EC50 value reported in the literature, human RXFP4; cited from earlier work
T1 construct: expressed in transfected cells
T1 sequence (Q8TDU9 whole entry): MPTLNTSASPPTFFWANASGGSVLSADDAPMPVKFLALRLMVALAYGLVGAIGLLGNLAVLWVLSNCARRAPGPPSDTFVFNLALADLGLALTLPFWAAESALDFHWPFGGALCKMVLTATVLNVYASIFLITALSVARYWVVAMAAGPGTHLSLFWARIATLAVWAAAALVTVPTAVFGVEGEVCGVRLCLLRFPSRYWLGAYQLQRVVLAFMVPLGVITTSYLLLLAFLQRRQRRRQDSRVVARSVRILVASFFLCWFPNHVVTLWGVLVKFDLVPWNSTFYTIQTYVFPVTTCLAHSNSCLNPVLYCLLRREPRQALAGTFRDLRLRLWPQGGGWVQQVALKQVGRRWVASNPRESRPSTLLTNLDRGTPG

human RXFP4 [3] = target: T1, human RXFP4; experiment: Inhibition of forskolin-induced cAMP in human RXFP4/CHO-K1 stable line; format: cell-based
Excerpt: (§1) The RXFP cDNAs, RXFP family members, as well as species orthologs, were obtained from commercially available cDNA clones or amplified from tissue RNAs as follows. Human RXFP1: A cDNA clone was obtained from OpenBiosystems (MHS4426-99239031. Human RXFP2: A cDNA clone for transcript variant 1 was obtained from OpenBiosystems (OHS4559-99620528). Cynomolgus monkey RXFP1: The cDNA was cloned out of Mauritian cyno brain RNA by RT-PCR using the following primers: forward: 5′-[…]-3′ (SEQ ID NO: 37); reverse: 5′-[…]-3′ (SEQ ID NO: 38). Dog RXFP1: The cDNA was cloned out of dog brain RNA by RT-PCR using the following primers: forward: 5′-[…]-3′ (SEQ ID NO: 39); reverse: 5′-[…]-3′ (SEQ ID NO: 40). Rat RXFP1: The cDNA was cloned out of Sprague Dawley rat brain RNA by RT-PCR using the following primers: forward: 5′-[…]-3′ (SEQ ID NO: 41); reverse: 5′-[…]-3 (SEQ ID NO: 42)′. Human RXFP3: A Gateway entry clone in vector pDONR221 was obtained from Invitrogen (IOH28381). Human RXFP4: A Gateway entry clone in vector pDONR201 was obtained. Mouse RXFP1: A Gateway entry clone in vector pDONR223 was obtained from OpenBiosystems (OMM4760-101549000). Using standard procedures (Gateway LR recombination), the RXFP entry clones were transferred into expression vector pEF-DEST51 (Invitrogen). In contrast to the all other RXFP clones, human RXFP4 was transferred into pcDNA3.1 (Invitrogen). For each construct, the RXFP cDNA, as well as its proper insertion into the expression vector, was verified by DNA sequencing.
CHO-K1 cells (ATCC #CRL-9618) were prepared for stable line generation by propagating at 37° C. with 5% CO2 in F-12 plus GlutaMAX-I medium (GIBCO #31765) supplemented with 10% fetal bovine heat-inactivated serum (Invitrogen #16140), and 1× Antibiotic-Antimycotic (GIBCO #15240-096). CHO-K1 cells were transfected with 12 μg of the appropriate expression construct plasmid using the FuGENE® 6 reagent (Roche #11814443 001) and the protocol provided by the manufacturer. One day post-transfection cells were replated into medium containing 10 μg of Blasticidin S HCl per mL (GIBCO #A11139-02). […]

human RXFP3 [4] = target: T2, human RXFP3 (Homo sapiens, UniProt Q9NSD7); experiment: Inhibition of forskolin-induced cAMP in human RXFP3/CHO-K1 stable line; format: cell-based; conditions: CHO-K1 stable line
T2 sequence (Q9NSD7 1-469): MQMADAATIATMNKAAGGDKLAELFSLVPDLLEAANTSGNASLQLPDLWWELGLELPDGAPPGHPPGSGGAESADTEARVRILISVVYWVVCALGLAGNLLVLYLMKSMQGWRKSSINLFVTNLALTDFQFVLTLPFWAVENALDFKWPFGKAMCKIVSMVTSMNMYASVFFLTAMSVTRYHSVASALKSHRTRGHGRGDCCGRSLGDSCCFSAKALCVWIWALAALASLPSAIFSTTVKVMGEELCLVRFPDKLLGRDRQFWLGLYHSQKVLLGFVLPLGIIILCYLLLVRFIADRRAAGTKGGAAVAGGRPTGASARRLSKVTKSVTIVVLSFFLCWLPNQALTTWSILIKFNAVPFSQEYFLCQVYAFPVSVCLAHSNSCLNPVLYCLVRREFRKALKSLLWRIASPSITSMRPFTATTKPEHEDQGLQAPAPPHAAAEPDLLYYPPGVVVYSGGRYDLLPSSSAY
Excerpt: as §1, with “For each construct, the RXFP cDNA, as well as its proper insertion into the expression vector, was verified by DNA sequencing.” left out

human RXFP3 [5] = target: T2, human RXFP3; conditions: literature value; read-out: EC50 value reported in the literature, human RXFP3; cited from earlier work

## RLX-A-AA5-20KPEG-001: relaxin variant, B1 Ala, pAF at A chain position A5, 20K PEGylated (chain 1 QLYSXLANKCCHVGCTKRSLARFC; chain 2 ASWMEEVIKLCGRELVRAQIAICGMSTWS; not fully specified; non-natural residues)
[1]
  AUCinf: 16095.9 ng·h/mL
  CL (mL/hr): 0.518 mL/min/kg
  Cmax: 438.0 ng/mL
  MRT: 29.4 h
  Tmax: 25.0 h
  Vz: 0.5474 L/kg
  Terminal HL: 12.2 h
  In vivo PK Term HL: 12.2 h
[1]; 1 hr
  Mean serum Conc.: 19.9 ng/mL
[1]; 2 hr
  Mean serum Conc.: 100.1 ng/mL
[1]; 4 hr
  Mean serum Conc.: 185.0 ng/mL
[1]; 8 hr
  Mean serum Conc.: 264.7 ng/mL
[1]; 12 hr
  Mean serum Conc.: 434.3 ng/mL
[1]; 25 hr
  Mean serum Conc.: 438.0 ng/mL
[1]; 34 hr
  Mean serum Conc.: 353.5 ng/mL
[1]; 50 hr
  Mean serum Conc.: 86.9 ng/mL
[1]; 58 hr
  Mean serum Conc.: 62.4 ng/mL
[1]; 73 hr
  Mean serum Conc.: 32.8 ng/mL
[1]; 80 hr
  Mean serum Conc.: 22.1 ng/mL
[1]; pre-dose (PD)
  Mean serum Conc.: BQL

## RLX-A-BV7-20KPEG-001: relaxin variant, B1 Ala, pAF at B chain position V7, 20K PEGylated (chain 1 QLYSALANKCCHVGCTKRSLARFC; chain 2 ASWMEE[Phe(4-Ac)](PEG 20 kDa)IKLCGRELVRAQIAICGMSTWS; not fully specified (bridges); ends and bridges not checked)
[1]
  AUCinf: 17260.9 ng·h/mL
  CL (mL/hr): 0.482 mL/min/kg
  Cmax: 471.6 ng/mL
  MRT: 27.9 h
  Tmax: 12.0 h
  Vz: 0.5469 L/kg
  Terminal HL: 13.1 h
  In vivo PK Term HL: 13.1 h
[1]; 1 hr
  Mean serum Conc.: 25.7 ng/mL
[1]; 2 hr
  Mean serum Conc.: 98.9 ng/mL
[1]; 4 hr
  Mean serum Conc.: 248.5 ng/mL
[1]; 8 hr
  Mean serum Conc.: 343.5 ng/mL
[1]; 12 hr
  Mean serum Conc.: 457.3 ng/mL
[1]; 25 hr
  Mean serum Conc.: 518.5 ng/mL
[1]; 34 hr
  Mean serum Conc.: 270.4 ng/mL
[1]; 50 hr
  Mean serum Conc.: 104.0 ng/mL
[1]; 58 hr
  Mean serum Conc.: 63.5 ng/mL
[1]; 73 hr
  Mean serum Conc.: 26.0 ng/mL
[1]; 80 hr
  Mean serum Conc.: 22.6 ng/mL
[1]; pre-dose (PD)
  Mean serum Conc.: BQL

## H3-RLX: H3-relaxin, the endogenous ligand for RXFP3 and RXFP4 receptors, positive control
Human RXFP4 [2]
  EC50: 1100 pM
Human RXFP4 [3]
  Maximal inhibition of forskolin-induced cAMP, human RXFP4 (partial agonist activity): ~40%
Human RXFP4 [3]; CHO-K1 stable line, inhibition of forskolin-induced cAMP
  EC50: 2800 ± 1500 pM
Human RXFP3 [4]
  EC50: 600 pM
Human RXFP3 [5]
  EC50: 400 pM

## RLX-A-BW28-20KPEG-001: relaxin variant, B1 Ala, pAF at B chain position W28, 20K PEGylated (chain 1 QLYSALANKCCHVGCTKRSLARFC; chain 2 ASWMEEVIKLCGRELVRAQIAICGMST[Phe(4-Ac)](PEG 20 kDa)S; not fully specified (bridges); ends and bridges not checked)
[1]
  AUCinf: 22191.2 ng·h/mL
  CL (mL/hr): 0.375 mL/min/kg
  Cmax: 511.0 ng/mL
  MRT: 31.1 h
  Tmax: 25.0 h
  Vz: 0.4526 L/kg
  Terminal HL: 13.9 h
  In vivo PK Term HL: 13.9 h
[1]; 1 hr
  Mean serum Conc.: 36.4 ng/mL
[1]; 4 hr
  Mean serum Conc.: 228.5 ng/mL
[1]; 8 hr
  Mean serum Conc.: 380.9 ng/mL
[1]; 12 hr
  Mean serum Conc.: 486.6 ng/mL
[1]; 25 hr
  Mean serum Conc.: 511.0 ng/mL
[1]; 34 hr
  Mean serum Conc.: 404.8 ng/mL
[1]; 50 hr
  Mean serum Conc.: 184.2 ng/mL
[1]; 58 hr
  Mean serum Conc.: 122.3 ng/mL
[1]; 73 hr
  Mean serum Conc.: 48.8 ng/mL
[1]; 80 hr
  Mean serum Conc.: 37.1 ng/mL
[1]; pre-dose (PD)
  Mean serum Conc.: BQL

## RLX-A-AR18-20KPEG-001: relaxin variant, B1 Ala, pAF at A chain position R18, 20K PEGylated (chain 1 QLYSALANKCCHVGCTKXSLARFC; chain 2 ASWMEEVIKLCGRELVRAQIAICGMSTWS; not fully specified; non-natural residues)
[1]
  AUCinf: 12985.5 ng·h/mL
  CL (mL/hr): 0.64 mL/min/kg
  Cmax: 345.9 ng/mL
  MRT: 27.7 h
  Tmax: 25.0 h
  Vz: 0.6947 L/kg
  Terminal HL: 12.5 h
  In vivo PK Term HL: 12.5 h
[1]; 1 hr
  Mean serum Conc.: 33.9 ng/mL
[1]; 2 hr
  Mean serum Conc.: 109.7 ng/mL
[1]; 4 hr
  Mean serum Conc.: 172.7 ng/mL
[1]; 8 hr
  Mean serum Conc.: 270.5 ng/mL
[1]; 12 hr
  Mean serum Conc.: 332.5 ng/mL
[1]; 25 hr
  Mean serum Conc.: 398.6 ng/mL
[1]; 34 hr
  Mean serum Conc.: 264.3 ng/mL
[1]; 50 hr
  Mean serum Conc.: 76.7 ng/mL
[1]; 58 hr
  Mean serum Conc.: 61.8 ng/mL
[1]; 73 hr
  Mean serum Conc.: 25.0 ng/mL
[1]; 80 hr
  Mean serum Conc.: 14.9 ng/mL
[1]; pre-dose (PD)
  Mean serum Conc.: BQL

## RLX-A-AV13-20KPEG-001: relaxin variant, B1 Ala, pAF substituted for valine 13 in the A chain, 20K PEG attached (chain 1 QLYSALANKCCHXGCTKRSLARFC; chain 2 ASWMEEVIKLCGRELVRAQIAICGMSTWS; not fully specified; non-natural residues)
[1]
  AUCinf: 32230.5 ng·h/mL
  CL (mL/hr): 0.258 mL/min/kg
  Cmax: 742.5 ng/mL
  MRT: 32.7 h
  Tmax: 25.0 h
  Vz: 0.3254 L/kg
  Terminal HL: 14.6 h
[1]; 1 hr
  Mean serum Conc.: 44.9 ng/mL
[1]; 2 hr
  Mean serum Conc.: 138.9 ng/mL
[1]; 4 hr
  Mean serum Conc.: 345.7 ng/mL
[1]; 8 hr
  Mean serum Conc.: 533.6 ng/mL
[1]; 12 hr
  Mean serum Conc.: 630.1 ng/mL
[1]; 25 hr
  Mean serum Conc.: 742.5 ng/mL
[1]; 34 hr
  Mean serum Conc.: 540.7 ng/mL
[1]; 50 hr
  Mean serum Conc.: 320.9 ng/mL
[1]; 58 hr
  Mean serum Conc.: 209.4 ng/mL
[1]; 73 hr
  Mean serum Conc.: 75.0 ng/mL
[1]; 80 hr
  Mean serum Conc.: 58.7 ng/mL
[1]; pre-dose (PD)
  Mean serum Conc.: BQL
